Reference: patent US20210040155A1 (RHYTHM PHARMACEUTICALS, published 2021)
Bridge positions count the residues as written; N and C are the ends. Square brackets hold non-standard residues; d marks the D form. dPhe(4-F) = N[C@H](Cc1ccc(F)cc1)C(=O)O; Pen = CC(C)(S)[C@H](N)C(=O)O; hCys = N[C@@H](CCS)C(=O)O

B1: Ac-Arg-cyclo[Cys-D-Leu-His-D-Phe-Arg-Trp-Cys]-NH2 (peptide)
peptide: Ac-RC[dL]H[dF]RWC-NH2
modifications: disulfide 2-8
B2: Ac-Arg-cyclo[Cys-D-Ala-Pro-D-Phe-Arg-Trp-Cys]-NH2 (peptide)
peptide: Ac-RC[dA]P[dF]RWC-NH2
modifications: disulfide 2-8
SMILES: CC(=O)N[C@@H](CCCNC(=N)N)C(=O)N[C@H]1CSSC[C@@H](C(N)=O)NC(=O)[C@H](Cc2c[nH]c3ccccc23)NC(=O)[C@H](CCCNC(=N)N)NC(=O)[C@@H](Cc2ccccc2)NC(=O)[C@@H]2CCCN2C(=O)[C@@H](C)NC1=O
B3: Ac-Arg-cyclo[hCys-D-Ala-D-Phe-Arg-Trp-Pen]-NH2 (peptide)
peptide: Ac-R[hCys][dA][dF]RW[Pen]-NH2
modifications: disulfide 2-7
SMILES: CC(=O)N[C@@H](CCCNC(=N)N)C(=O)N[C@H]1CCSSC(C)(C)[C@@H](C(N)=O)NC(=O)[C@H](Cc2c[nH]c3ccccc23)NC(=O)[C@H](CCCNC(=N)N)NC(=O)[C@@H](Cc2ccccc2)NC(=O)[C@@H](C)NC1=O
B4: Ac-Glu-cyclo[Cys-Ala-His-D-Phe-Arg-Trp-Cys]-NH2 (peptide)
peptide: Ac-ECAH[dF]RWC-NH2
modifications: disulfide 2-8
SMILES: CC(=O)N[C@@H](CCC(=O)O)C(=O)N[C@H]1CSSC[C@@H](C(N)=O)NC(=O)[C@H](Cc2c[nH]c3ccccc23)NC(=O)[C@H](CCCNC(=N)N)NC(=O)[C@@H](Cc2ccccc2)NC(=O)[C@H](Cc2c[nH]cn2)NC(=O)[C@H](C)NC1=O
B5: Ac-Arg-cyclo[Cys-D-Ala-Tyr-D-Phe-Arg-Trp-Cys]-NH2 (peptide)
peptide: Ac-RC[dA]Y[dF]RWC-NH2
modifications: disulfide 2-8
SMILES: CC(=O)N[C@@H](CCCNC(=N)N)C(=O)N[C@H]1CSSC[C@@H](C(N)=O)NC(=O)[C@H](Cc2c[nH]c3ccccc23)NC(=O)[C@H](CCCNC(=N)N)NC(=O)[C@@H](Cc2ccccc2)NC(=O)[C@H](Cc2ccc(O)cc2)NC(=O)[C@@H](C)NC1=O
B6: Ac-Arg-cyclo[Cys-D-Ala-Gln-D-Phe-Arg-Trp-Cys]-NH2 (peptide)
peptide: Ac-RC[dA]Q[dF]RWC-NH2
modifications: disulfide 2-8
SMILES: CC(=O)N[C@@H](CCCNC(=N)N)C(=O)N[C@H]1CSSC[C@@H](C(N)=O)NC(=O)[C@H](Cc2c[nH]c3ccccc23)NC(=O)[C@H](CCCNC(=N)N)NC(=O)[C@@H](Cc2ccccc2)NC(=O)[C@H](CCC(N)=O)NC(=O)[C@@H](C)NC1=O
B7: Ac-Arg-cyclo[Cys-D-Ile-His-D-Phe-Arg-Trp-Cys]-NH2 (peptide)
peptide: Ac-RC[dI]H[dF]RWC-NH2
modifications: disulfide 2-8
B8: Ac-Arg-cyclo[Cys-D-Ala-Arg-D-Phe-Arg-Trp-Cys]-NH2 (peptide)
peptide: Ac-RC[dA]R[dF]RWC-NH2
modifications: disulfide 2-8
SMILES: CC(=O)N[C@@H](CCCNC(=N)N)C(=O)N[C@H]1CSSC[C@@H](C(N)=O)NC(=O)[C@H](Cc2c[nH]c3ccccc23)NC(=O)[C@H](CCCNC(=N)N)NC(=O)[C@@H](Cc2ccccc2)NC(=O)[C@H](CCCNC(=N)N)NC(=O)[C@@H](C)NC1=O
B9: Ac-Arg-cyclo[Cys-D-Ala-Trp-D-Phe-Arg-Trp-Cys]-NH2 (peptide)
peptide: Ac-RC[dA]W[dF]RWC-NH2
modifications: disulfide 2-8
SMILES: CC(=O)N[C@@H](CCCNC(=N)N)C(=O)N[C@H]1CSSC[C@@H](C(N)=O)NC(=O)[C@H](Cc2c[nH]c3ccccc23)NC(=O)[C@H](CCCNC(=N)N)NC(=O)[C@@H](Cc2ccccc2)NC(=O)[C@H](Cc2c[nH]c3ccccc23)NC(=O)[C@@H](C)NC1=O
B10: Ac-Arg-cyclo[Cys-D-Ala-Asn-D-Phe-Arg-Trp-Cys]-NH2 (peptide)
peptide: Ac-RC[dA]N[dF]RWC-NH2
modifications: disulfide 2-8
SMILES: CC(=O)N[C@@H](CCCNC(=N)N)C(=O)N[C@H]1CSSC[C@@H](C(N)=O)NC(=O)[C@H](Cc2c[nH]c3ccccc23)NC(=O)[C@H](CCCNC(=N)N)NC(=O)[C@@H](Cc2ccccc2)NC(=O)[C@H](CC(N)=O)NC(=O)[C@@H](C)NC1=O
B11: Ac-Arg-cyclo[Cys-D-Val-His-D-Phe-Arg-Trp-Cys]-NH2 (peptide)
peptide: Ac-RC[dV]H[dF]RWC-NH2
modifications: disulfide 2-8
B12: Ac-Arg-cyclo[hCys-Ala-D-Phe-Arg-Trp-Cys]-NH2 (peptide)
peptide: Ac-R[hCys]A[dF]RWC-NH2
modifications: disulfide 2-7
SMILES: CC(=O)N[C@@H](CCCNC(=N)N)C(=O)N[C@H]1CCSSC[C@@H](C(N)=O)NC(=O)[C@H](Cc2c[nH]c3ccccc23)NC(=O)[C@H](CCCNC(=N)N)NC(=O)[C@@H](Cc2ccccc2)NC(=O)[C@H](C)NC1=O
B13: Ac-Arg-cyclo[Cys-D-Ala-Pro-D-Phe(p-F)-Arg-Trp-Cys]-NH2 (peptide)
peptide: Ac-RC[dA]P[dPhe(4-F)]RWC-NH2
modifications: disulfide 2-8
SMILES: CC(=O)N[C@@H](CCCNC(=N)N)C(=O)N[C@H]1CSSC[C@@H](C(N)=O)NC(=O)[C@H](Cc2c[nH]c3ccccc23)NC(=O)[C@H](CCCNC(=N)N)NC(=O)[C@@H](Cc2ccc(F)cc2)NC(=O)[C@@H]2CCCN2C(=O)[C@@H](C)NC1=O
B14: Ac-Arg-cyclo[hCys-D-Ala-D-Phe-Arg-Trp-Cys]-NH2 (peptide)
peptide: Ac-R[hCys][dA][dF]RWC-NH2
modifications: disulfide 2-7
SMILES: CC(=O)N[C@@H](CCCNC(=N)N)C(=O)N[C@H]1CCSSC[C@@H](C(N)=O)NC(=O)[C@H](Cc2c[nH]c3ccccc23)NC(=O)[C@H](CCCNC(=N)N)NC(=O)[C@@H](Cc2ccccc2)NC(=O)[C@@H](C)NC1=O

target: melanocortin-4 receptor (human, UniProt P32245 1-332); experiment: cell-based or functional assay
Sequence (P32245 whole entry): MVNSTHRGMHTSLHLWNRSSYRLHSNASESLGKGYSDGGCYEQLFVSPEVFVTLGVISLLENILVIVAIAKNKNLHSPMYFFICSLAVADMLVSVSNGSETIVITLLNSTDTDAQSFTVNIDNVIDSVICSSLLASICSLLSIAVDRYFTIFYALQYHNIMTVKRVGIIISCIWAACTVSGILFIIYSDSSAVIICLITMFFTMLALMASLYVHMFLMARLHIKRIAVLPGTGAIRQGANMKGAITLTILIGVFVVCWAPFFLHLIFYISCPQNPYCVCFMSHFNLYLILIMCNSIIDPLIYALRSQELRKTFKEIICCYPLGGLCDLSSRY

| Binder | cAMP Assay (EC-50) |
| --- | --- |
| B1 | 0.7 nM |
| B2 | 56 nM |
| B3 | 13.7 nM |
| B4 | < 0.5 nM |
| B5 | 45.1 nM |
| B6 | 1.6 nM |
| B7 | 1 nM |
| B8 | 2.7 nM |
| B9 | 34 nM |
| B10 | 3 nM |
| B11 | 1.34 nM |
| B12 | 0.26 nM |
| B13 | 24 nM |
| B14 | 7.5 nM |

target: melanocortin-5 receptor (human, UniProt P33032 1-325); experiment: cell-based or functional assay
Sequence (P33032 whole entry): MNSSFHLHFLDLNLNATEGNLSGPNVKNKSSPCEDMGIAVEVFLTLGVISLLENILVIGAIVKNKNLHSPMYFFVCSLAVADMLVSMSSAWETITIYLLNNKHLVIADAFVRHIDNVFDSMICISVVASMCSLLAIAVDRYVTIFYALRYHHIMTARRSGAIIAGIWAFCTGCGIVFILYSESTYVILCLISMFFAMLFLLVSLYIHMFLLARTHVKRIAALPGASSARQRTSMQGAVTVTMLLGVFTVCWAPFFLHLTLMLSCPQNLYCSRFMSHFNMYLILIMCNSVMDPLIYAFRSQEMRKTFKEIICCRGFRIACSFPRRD

| Binder | Ratios of EC50 values MC 5/4 (MC5R against MC4R) | cAMP Assay (EC-50) |
| --- | --- | --- |
| B1 | 130 ratio | 91 nM |
| B2 | 13 ratio | 707 nM |
| B3 | 159 ratio | 2180 nM |
| B4 | > 2560 ratio | 1280 nM |
| B6 | 155 ratio | 255 nM |
| B7 | 420 ratio | 420 nM |
| B9 | 7 ratio | 259 nM |
| B10 | 530 ratio | 1490 nM |
| B11 | 584 ratio | 782 nM |
| B12 | 161 ratio | 42 nM |
| B13 | 12 ratio | 283 nM |
| B14 | > 1340 ratio | > 10000 nM |

target: melanocortin-1 receptor (human, UniProt Q01726 1-317); experiment: cell-based or functional assay
Sequence (Q01726 whole entry): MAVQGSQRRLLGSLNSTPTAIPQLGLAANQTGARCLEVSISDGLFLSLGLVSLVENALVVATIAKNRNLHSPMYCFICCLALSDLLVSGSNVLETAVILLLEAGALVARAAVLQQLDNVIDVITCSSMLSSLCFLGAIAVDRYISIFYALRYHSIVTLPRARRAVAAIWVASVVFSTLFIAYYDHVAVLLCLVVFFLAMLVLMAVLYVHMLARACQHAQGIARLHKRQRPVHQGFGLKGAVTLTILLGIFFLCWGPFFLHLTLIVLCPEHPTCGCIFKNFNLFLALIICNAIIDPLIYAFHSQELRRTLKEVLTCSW

| Binder | Ratios of EC50 values MC 1/4 (MC1R against MC4R) | cAMP Assay (EC-50) |
| --- | --- | --- |
| B1 | 0.68 ratio | 0.47 nM |
| B2 | 5 ratio | 280 nM |
| B3 | 15 ratio | 195 nM |
| B4 | > 3 ratio | 1.7 nM |
| B5 | 6.67 ratio | 301 nM |
| B6 | 40 ratio | 71 nM |
| B7 | 0.69 ratio | 0.69 nM |
| B8 | 2.31 ratio | 6.2 nM |
| B9 | 8 ratio | 273 nM |
| B10 | 90 ratio | 248 nM |
| B11 | 0.93 ratio | 1.25 nM |
| B12 | 15 ratio | 4 nM |
| B13 | 7 ratio | 169 nM |
| B14 | 120 ratio | 888 nM |

target: melanocortin-3 receptor (human, UniProt P41968 1-323); experiment: cell-based or functional assay
Sequence (P41968 whole entry): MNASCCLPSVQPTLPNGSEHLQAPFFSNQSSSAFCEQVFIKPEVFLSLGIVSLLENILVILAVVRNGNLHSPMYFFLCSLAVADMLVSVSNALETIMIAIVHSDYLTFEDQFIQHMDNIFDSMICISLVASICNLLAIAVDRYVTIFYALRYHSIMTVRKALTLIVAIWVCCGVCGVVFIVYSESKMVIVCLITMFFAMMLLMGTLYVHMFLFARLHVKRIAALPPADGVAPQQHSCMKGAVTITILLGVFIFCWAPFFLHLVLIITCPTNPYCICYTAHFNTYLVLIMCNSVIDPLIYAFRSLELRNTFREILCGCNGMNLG

| Binder | Ratios of EC50 values MC 3/4 (MC3R against MC4R) | cAMP Assay (EC-50) |
| --- | --- | --- |
| B1 | 1.13 ratio | 0.79 nM |
| B2 | > 200 ratio | > 10000 nM |
| B3 | 17 ratio | 233 nM |
| B4 | > 20 ratio | 9.9 nM |
| B5 | > 22.2 ratio | > 1000 nM |
| B6 | 5 ratio | 8.6 nM |
| B7 | 0.96 ratio | 0.96 nM |
| B8 | 1.45 ratio | 3.9 nM |
| B9 | > 290 ratio | > 10000 nM |
| B10 | 30 ratio | 81 nM |
| B11 | 1.19 ratio | 1.59 nM |
| B12 | 3.8 ratio | 1 nM |
| B13 | > 400 ratio | > 10000 nM |
| B14 | 420 ratio | 3160 nM |
